Assay results as given in publication PMC3061877, “Comparison of the Frequency of Functional SH3 Domains with Different Limited Sets of Amino Acids Using mRNA Display” (PLoS ONE, 2011).

Target: wild-type src SH3 domain (T7·tag/His6 construct) (UniProt P00523 81-140)
Assay: other fluorescence titration; fluorescence perturbation assay; aliquots of peptide added to SH3 domain (0.5 µM) in PBS pH 7.4, 10 min at 20°C; excitation 278 nm, emission 350 nm
Conditions: both partners purified

B1: VSL12 peptide (peptide)
peptide: VSLARRPLPPLP
notes: The methods of the fluorescence perturbation assay say only 'peptide VSL12'; also called free VSL12 peptide; peptide VSL12; source: synthetic peptide, bought: Invitrogen
How did the Kd turn out when B1 was run?
The Kd was 2300 ± 470 nM.
